For assay [1], the target named is T1, human CD73 expressed on the cell surface (human, UniProt P21589 27-549).
T1 sequence: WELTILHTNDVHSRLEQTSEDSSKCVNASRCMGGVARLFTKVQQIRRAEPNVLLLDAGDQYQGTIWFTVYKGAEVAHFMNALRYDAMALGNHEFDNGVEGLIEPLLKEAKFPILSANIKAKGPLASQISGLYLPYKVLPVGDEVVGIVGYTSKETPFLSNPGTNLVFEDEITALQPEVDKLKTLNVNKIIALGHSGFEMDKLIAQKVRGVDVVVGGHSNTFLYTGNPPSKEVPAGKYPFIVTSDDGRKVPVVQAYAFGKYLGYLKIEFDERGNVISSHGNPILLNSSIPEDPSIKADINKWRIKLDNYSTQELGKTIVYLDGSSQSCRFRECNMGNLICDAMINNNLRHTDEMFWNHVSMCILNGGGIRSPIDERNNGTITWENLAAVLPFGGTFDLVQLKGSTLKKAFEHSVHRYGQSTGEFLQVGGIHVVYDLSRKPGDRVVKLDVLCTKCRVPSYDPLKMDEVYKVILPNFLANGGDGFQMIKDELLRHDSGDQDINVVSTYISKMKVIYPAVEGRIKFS
Nature of the assay: cell-based or functional assay.

In assay [2] the target is T2, human CD73 antigen (human, UniProt P21589 27-547).
T2 construct: also called Biotinylated Human CD73
T2 sequence (looked up): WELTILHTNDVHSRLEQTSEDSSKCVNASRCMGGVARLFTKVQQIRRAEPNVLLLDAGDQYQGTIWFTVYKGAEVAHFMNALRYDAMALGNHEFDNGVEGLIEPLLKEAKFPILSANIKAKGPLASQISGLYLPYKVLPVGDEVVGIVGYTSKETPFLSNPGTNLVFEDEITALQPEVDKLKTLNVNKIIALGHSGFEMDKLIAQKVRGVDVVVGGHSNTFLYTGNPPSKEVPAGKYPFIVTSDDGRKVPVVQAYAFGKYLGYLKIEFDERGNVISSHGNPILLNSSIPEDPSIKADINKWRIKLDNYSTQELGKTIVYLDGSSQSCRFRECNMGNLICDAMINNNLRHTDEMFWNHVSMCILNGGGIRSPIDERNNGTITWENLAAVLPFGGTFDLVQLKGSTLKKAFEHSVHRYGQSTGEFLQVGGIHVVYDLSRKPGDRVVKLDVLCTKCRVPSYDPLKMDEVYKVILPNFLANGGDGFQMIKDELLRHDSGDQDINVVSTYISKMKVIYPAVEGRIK
Nature of the assay: ForteBio BLI; IgG on AHQ sensor, 100 nM antigen; bivalent; 1:1 model. For orientation: BLI is a label-free optical method that tracks binding on a fibre tip over time.
Description: (§1) Briefly, the sensor was equilibrated off-line in assay buffer for 30 min, then on-line detection was carried out for 60 sec to establish a baseline. The purified antibody obtained as described above was loaded on-line to the AHQ sensor (ForteBio) for ForteBio affinity determination. The sensor loaded with the antibody was then exposed to 100 nM of human or cynomolgus monkey antigen for 5 minutes, after which the sensor was transferred to assay buffer for dissociation for 5 minutes to determine the dissociation rate. Kinetic analysis was performed by using a 1:1 binding model.

Assay [3] concerns the target T3, cynomolgus monkey CD73 antigen (cynomolgus monkey, UniProt A0A2K5V5U7 27-547).
T3 construct: also called Biotinylated cynomolgus monkey CD73
T3 sequence: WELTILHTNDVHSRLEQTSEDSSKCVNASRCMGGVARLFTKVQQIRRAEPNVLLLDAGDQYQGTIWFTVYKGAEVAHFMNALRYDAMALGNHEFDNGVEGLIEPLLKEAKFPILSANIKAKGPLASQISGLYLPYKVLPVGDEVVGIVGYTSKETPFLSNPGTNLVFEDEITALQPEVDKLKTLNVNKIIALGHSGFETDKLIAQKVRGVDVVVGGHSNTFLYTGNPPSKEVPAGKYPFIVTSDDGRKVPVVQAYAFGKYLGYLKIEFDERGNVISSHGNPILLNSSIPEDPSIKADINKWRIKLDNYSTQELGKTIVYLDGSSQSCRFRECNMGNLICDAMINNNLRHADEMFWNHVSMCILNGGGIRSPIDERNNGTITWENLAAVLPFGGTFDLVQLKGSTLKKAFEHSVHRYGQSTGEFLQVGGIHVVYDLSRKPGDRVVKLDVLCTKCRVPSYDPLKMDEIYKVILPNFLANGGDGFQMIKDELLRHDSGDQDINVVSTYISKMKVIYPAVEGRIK
The description is as above.
Description: as §1

Assay [4] has as its target T2, human CD73 antigen. Nature of the assay: ForteBio BLI; antigen on sensor, 100 nM scFv; monovalent; 1:1 model.
Description: (§2) Human or cynomolgus monkey CD73 antigen protein was loaded on-line to the AHQ sensor (ForteBio) for ForteBio affinity measurement. […] Kinetic analysis was performed by using a 1:1 binding model.
Assay [5] has as its target T3, cynomolgus monkey CD73 antigen. The description is as above.
Description: as §2
For assay [6], the target named is T1, human CD73 expressed on the cell surface. Nature of the assay: cell-based or functional assay. This is another data set of the same source.

B1: ADI-34071 (antibody, human IgG4 S228P, kappa, F234A L235A, V domains shown)
VH: EVQLVESGGGLVQPGRSLRLSCAASGFTFDDYAMHWVRQAPGKGLEWVSGISWSSGSIGYADSVKGRFTISRDNAKNSLYLQMNSLRAEDTAVYYCAKDRRYGLTYGMDVWGQGTTVTVSS
VL: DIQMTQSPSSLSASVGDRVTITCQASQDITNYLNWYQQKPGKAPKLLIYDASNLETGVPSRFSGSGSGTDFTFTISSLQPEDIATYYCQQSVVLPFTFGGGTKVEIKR
notes: Parental antibody from the yeast library
As to B1, the “CD73 enzymatic activity assay IC50 (Calu-6 cells, CellTiter-Glo)” value (“CD73 enzymatic activity assay IC50” for short) in assay [1] turned out to be 0.171 µg/mL. The figures for the Kd (with human CD73 antigen [2]; in assay [3]) were 0.892 nM and 1.34 nM, respectively.

B2: ADI-34104 (antibody, human IgG4 S228P, kappa, F234A L235A, V domains shown)
VH: QVQLQESGPGLVKPSETLSLTCAVSGYSISSGYYWGWIRQPPGKGLEWIGSIYHSGSTYYNPSLKSRVTISVDTSKNQFSLKLSSVTAADTAVYYCARASIYTPPPEYFQHWGQGTLVTVSS
VL: DIQMTQSPSTLSASVGDRVTITCRASQSISSWLAWYQQKPGKAPKLLIYDASSLESGVPSRFSGSGSGTEFTLTISSLQPDDFATYYCQQSRIYSTFGGGTKVEIKR
notes: Parental antibody
For B2, in assay [1], the “CD73 enzymatic activity assay IC50” value was 0.142 µg/mL. The same molecule returned a Kd with human CD73 antigen [2] of 0.847 nM.

B3: scfv fragment of ADI-37542 (scFv, V domains shown)
VH: QVQLQESGPGLVKPSETLSLTCAVSGYSISEGYYWGWIRQPPGKGLEWIGSIYHTGFTYYNPSLKSRVTISVDTSKNQFSLKLSSVTAADTAVYYCARASIYTPPPEYFQHWGQGTLVTVSS
VL: DIQMTQSPSTLSASVGDRVTITCRASQSISSWLAWYQQKPGKAPKLLIYDASSLESGVPSRFSGSGSGTEFTLTISSLQPDDFATYYCQQSRIYSTFGGGTKVEIK
Regarding B3, the Kd in the assay with human CD73 antigen [4] worked out at 6.04 nM; in assay [5] it was 5.47 nM.

B4: scfv fragment of ADI-37543 (scFv, V domains shown)
VH: QVQLQESGPGLVKPSETLSLTCAVSGYSISSGYYWAWIRQPPGKGLEWIGSIFHSGFTFYNPSLKSRVTISVDTSKNQFSLKLSSVTAADTAVYYCARASIYTPPPEYFQHWGQGTLVTVSS
VL: DIQMTQSPSTLSASVGDRVTITCRASQSISSWLAWYQQKPGKAPKLLIYDASSLESGVPSRFSGSGSGTEFTLTISSLQPDDFATYYCQQSRIYSTFGGGTKVEIK
For the molecule B4, the Kd in the assay with human CD73 antigen [4] was 3.85 nM; in assay [5] it was 2.99 nM.

B5: ADI-34086 (antibody, human IgG4 S228P, kappa, F234A L235A, V domains shown)
VH: EVQLLESGGGLVQPGGSLRLSCAASGFTFSNYAMSWVRQAPGKGLEWVSAISGSGGSTYYADSVKGRFTISRDNSKNTLYLQMNSLRAEDTAVYYCARGGPYGSGSYWDTFDYWGQGTLVTVSS
VL: EIVMTQSPATLSVSPGERATLSCRASQSVSSNLAWYQQKPGQAPRLLIYGASTRATGIPARFSGSGSGTEFTLTISSLQSEDFAVYYCQQYTNHYTFGGGTKVEIKR
notes: Parental antibody
As to B5, in assay [1], the “CD73 enzymatic activity assay IC50” value turned out to be 0.089 µg/mL. Moreover, the Kd with human CD73 antigen [2] was 1.23 nM; in assay [3] it was 1.9 nM.

B6: ADI-34101 (antibody, human IgG4 S228P, kappa, F234A L235A, V domains shown)
VH: QVQLVESGGGVVQPGRSLRLSCAASGFTFSSYGMHWVRQAPGKGLEWVAVISYEGSNKYYADSVKGRFTISRDNSKNTLYLQMNSLRAEDTAVYYCARSRYDWSLFDIWGQGTMVTVSS
VL: EIVLTQSPGTLSLSPGERATLSCRASQSVSSSYLAWYQQKPGQAPRLLIYGASSRATGIPDRFSGSGSGTDFTLTISRLEPEDFAVYYCQQYVLYPFTFGGGTKVEIKR
notes: Parental antibody
With B6, the “CD73 enzymatic activity assay IC50” value in assay [1] came to 0.153 µg/mL. Besides, the Kd was 1.07 nM with human CD73 antigen [2] and 1.57 nM in assay [3].

B7: ADI-34074 (antibody, human IgG4 S228P, kappa, F234A L235A, V domains shown)
VH: EVQLVESGGGLVQPGRSLRLSCAASGFTFDDYAMHWVRQAPGKGLEWVSGISWSSGSIGYADSVKGRFTISRDNAKNSLYLQMNSLRAEDTAVYYCAKGKYLPTGSVDYWGQGTLVTVSS
VL: EIVLTQSPGTLSLSPGERATLSCRASQSVSSSYLAWYQQKPGQAPRLLIYGASSRATGIPDRFSGSGSGTDFTLTISRLEPEDFAVYYCQQYYDYPPITFGGGTKVEIKR
notes: Parental antibody; also called AD-34074
Turning to B7, the “CD73 enzymatic activity assay IC50” value in assay [1] was 0.476 µg/mL. In addition, the Kd in the assay with human CD73 antigen [2] stood at 2.12 nM; in assay [3] it was 3.13 nM.

B8: ADI-34095 (antibody, human IgG4 S228P, kappa, F234A L235A, V domains shown)
VH: QVQLVESGGGVVQPGRSLRLSCAASGFTFSSYGMHWVRQAPGKGLEWVAVISYEGSNKYYADSVKGRFTISRDNSKNTLYLQMNSLRAEDTAVYYCARGGARYPIAFDIWGQGTMVTVSS
VL: DIQLTQSPSSVSASVGDRVTITCRASQDISSWLAWYQQKPGKAPKLLIYAASSLQSGVPSRFSGSGSGTDFTLTISSLQPEDFATYYCQQANDFPITFGGGTKVEIKR
Consider B8, for which the “CD73 enzymatic activity assay IC50” value in assay [1] came to 0.279 µg/mL.

B9: Oleclumab (antibody, V domains shown)
VH: EVQLLESGGGLVQPGGSLRLSCAASGFTFSSYAYSWVRQAPGKGLEWVSAISGSGGRTYYADSVKGRFTISRDNSKNTLYLQMNSLRAEDTAVYYCARLGYGRVDEWGRGTLVTVSS
VL: QSVLTQPPSASGTPGQRVTISCSGSLSNIGRNPVNWYQQLPGTAPKLLIYLDNLRLSGVPDRFSGSKSGTSASLAISGLQSEDEADYYCATWDDSHPGWTFGGGTKLTVL
For the molecule B9, the “CD73 enzymatic activity assay IC50” value in assay [1] came out at 0.167 µg/mL. Besides, in assay [6], the “IC50 for inhibiting the enzymatic activity of CD73 (Calu-6 cells)” value turned out to be 0.177 µg/mL. The Kd with human CD73 antigen [2] is 0.948 nM; in assay [3] it was 0.96 nM.
